Entries after “also recorded” stand apart in the source; their conditions may differ.
T1: hM4DREADD in Tac2+ neurons (Homo sapiens, UniProt P08173, A203G/Y113C)
T1 construct: host or cells: Tac2+ neurons of Tac2-Cre mice (dBNSTa, DMH or CeA), transduced in vivo with AAV2-EF1a-DIO-hM4D-mCherry
T1 sequence (P08173 1-479 Y113C/A203G): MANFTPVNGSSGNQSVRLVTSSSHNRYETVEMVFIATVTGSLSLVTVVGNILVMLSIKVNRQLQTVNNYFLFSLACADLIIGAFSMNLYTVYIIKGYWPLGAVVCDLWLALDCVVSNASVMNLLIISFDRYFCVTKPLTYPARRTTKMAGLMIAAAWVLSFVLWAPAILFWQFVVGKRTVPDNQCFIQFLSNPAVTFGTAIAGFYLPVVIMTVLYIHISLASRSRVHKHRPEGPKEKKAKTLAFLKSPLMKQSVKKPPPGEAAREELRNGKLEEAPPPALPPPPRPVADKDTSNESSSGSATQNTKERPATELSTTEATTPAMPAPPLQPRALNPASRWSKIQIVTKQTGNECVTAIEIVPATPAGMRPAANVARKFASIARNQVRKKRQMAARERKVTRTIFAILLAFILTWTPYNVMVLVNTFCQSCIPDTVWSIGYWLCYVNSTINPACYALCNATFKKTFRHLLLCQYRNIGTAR

B1: shRNA-1: small hairpin RNA for mouse Tac2 gene (SEQ ID NO: 9, 10), expressed from AAV5-H1-shRNA-CMV-zsGreen (nucleic acid)
chain 1: CCGACGTGGTTGAAGAGAACACCGCTTCCTGTCACGGTGTTCTCTTCAACCACGTCTTTTTT
chain 2: AAAAAAGACGTGGTTGAAGAGAACACCGTGACAGGAAGCGGTGTTCTCTTCAACCACGTCGG

Experiments:
[1] = target: T1, hM4DREADD in Tac2+ neurons; assay: Resident intruder assay, CNO silencing of Tac2+ neurons (hM4DREADD); format: in vivo, mouse; conditions: SIS Tac2-Cre mice, hM4DREADD in DMH; CNO 5 mg/kg i.p.
Protocol: Testing for aggression using the resident intruder assay (Blanchard et al., 2003; incorporated by reference in its entirety) was performed as previously described (Hong et al., 2015; Hong et al., 2014; Lee et al., 2014; incorporated by reference in their entirety). Briefly, experimental mice (“residents”) were transported in their homecage to a novel behavior testing room (cagemates in group housed mice were removed from the homecage prior to transport for this and all other behavioral tests), where they acclimated for 5-15 minutes. Homecages were then slotted into a customized behavioral chamber lit with a surround panel of infrared lights and equipped with two synchronized infrared video cameras (Pointgrey) placed at 90-degree angles from each other to allow for simultaneous behavior recording with a front and top view. Synchronized video was acquired using Hunter 4.0 software (custom, Pietro Perona lab, Caltech). […] Fighting bouts were scored on a frame-by-frame basis and were defined as a frame during which the resident male was engaged in an episode of biting or intense aggressive behavior immediately surrounding a biting episode. Annotation files were then batch analyzed for behavior, including number of fighting bouts, using in-house customized programs in MATLAB (A. Kennedy, Caltech). […]

Tac2 = assay: Resident intruder assay, Tac2 shRNA knockdown; format: in vivo, mouse; conditions: SIS mice
Excerpt: Small hairpin RNA (shRNA) for the mouse Tac2 gene (NM_009312.2) were designed using the online designing tool siDirect 2.0 (http://sidirect2.mai.jp/) (Naito et al., 2009; incorporated by reference in its entirety).
8-16 week old mice were anesthetized with isoflurane and mounted in a stereotaxic apparatus (Kopf Instruments). Anesthesia was maintained throughout surgery at 1-1.5% isoflurane. The skull was exposed and small burr holes produced dorsal to each injection site using a stereotaxic mounted drill. […] Directly following surgery, mice were given a subcutaneous injection of ketoprofen (2 mg/kg) and supplied with drinking water containing 400 mg/L sulphamethoxazole and 200 mg/L ibuprofen and monitored for 7 days. […]
Testing for aggression using the resident intruder assay (Blanchard et al., 2003; incorporated by reference in its entirety) was performed as previously described (Hong et al., 2015; Hong et al., 2014; Lee et al., 2014; incorporated by reference in their entirety). […] Fighting bouts were scored on a frame-by-frame basis and were defined as a frame during which the resident male was engaged in an episode of biting or intense aggressive behavior immediately surrounding a biting episode. Annotation files were then batch analyzed for behavior, including number of fighting bouts, using in-house customized programs in MATLAB (A. Kennedy, Caltech). […]

| Molecule | aggression [1] | SIS-induced aggression (Tac2; AAV shRNA in DMH) | SIS-induced aggression (Tac2; AAV shRNA in dBNSTa) |
| --- | --- | --- | --- |
| C[N+]1([O-])CCN(C2=Nc3cc(Cl)ccc3Nc3ccccc32)CC1 [CNO, clozapine-N-oxide] | blocked; also recorded: inhibited |  |  |
| B1 |  | blocked | had no effect |

Reference: US12083109B2, “Neurokinin antagonists and uses thereof” (California Institute of Technology, priority 2017, dated 2024)
